The experiment addresses T1, varicella-zoster virus glycoprotein H (varicella-zoster virus, UniProt P09260 18-841, limits assumed).
T1 sequence (looked up): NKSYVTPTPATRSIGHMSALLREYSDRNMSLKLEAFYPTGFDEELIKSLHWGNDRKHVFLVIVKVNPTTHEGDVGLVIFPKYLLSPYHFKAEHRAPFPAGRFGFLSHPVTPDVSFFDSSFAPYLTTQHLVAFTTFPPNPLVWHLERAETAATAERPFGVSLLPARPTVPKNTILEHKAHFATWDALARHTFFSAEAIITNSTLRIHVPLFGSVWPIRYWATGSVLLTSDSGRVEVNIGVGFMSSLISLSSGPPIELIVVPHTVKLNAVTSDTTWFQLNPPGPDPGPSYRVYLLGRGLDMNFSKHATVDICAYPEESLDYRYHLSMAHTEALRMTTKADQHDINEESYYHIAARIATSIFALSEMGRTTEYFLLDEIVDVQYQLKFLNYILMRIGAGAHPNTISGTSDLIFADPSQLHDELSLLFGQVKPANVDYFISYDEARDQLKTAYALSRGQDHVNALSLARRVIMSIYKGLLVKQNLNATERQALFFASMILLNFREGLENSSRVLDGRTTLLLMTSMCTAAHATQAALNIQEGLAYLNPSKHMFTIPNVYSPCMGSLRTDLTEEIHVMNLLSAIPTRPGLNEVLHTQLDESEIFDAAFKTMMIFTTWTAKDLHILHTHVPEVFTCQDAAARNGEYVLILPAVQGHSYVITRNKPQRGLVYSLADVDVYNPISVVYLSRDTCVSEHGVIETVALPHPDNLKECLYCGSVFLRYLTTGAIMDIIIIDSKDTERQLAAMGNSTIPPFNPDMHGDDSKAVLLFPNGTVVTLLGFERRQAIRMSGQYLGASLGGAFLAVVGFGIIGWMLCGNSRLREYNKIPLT
Kind of experiment: cell-based or functional assay.

B1: RM-2D6 (antibody, IgG1, V domains shown)
VH: EVQLVESGGGVVQPGRSLRLSCAASGFMFSSYGMHWVRQAPGKGLEWVAAVSHDGTNDLYADSVKGRFSISRDNSKNTLYLQMNSLRAEDTAVYYCAKTSWARFLEWTFDYWGQGTLVTVSS
VL: DIQMTQSPSSLSASVGDRVTITCRASQSINRYLNWYQQKPGKAPKLLIYGASSLQSGVPLRFSGSGSGTDFTLTISSLQPEDFATYYCQQSHSTPTFGQGTRLEIK
B1: the “In vitro neutralization IC50 (with complement)” value came to 0.03 µg/mL and the “In vitro neutralization IC50 (without complement)” value amounted to 0.23 µg/mL.

B2: 302-1G9 (antibody, IgG1, V domains shown)
VH: QVQLVQSGAEVKKPGASVKVSCEAFGYTFSNYGFTWVRQAPGQGLEWMGWISASNANTKYGQKFRGRVTLTTDTSTSTAYMELRNLGYDDTAMYYCARDRGGSLAMVVGLDHWGQGTLVTVSS
VL: DIQMTQSPTSLSASVGDRVTITCRASQSIGGYLNWYQQNPGKAPKLLIYAASTLQRGVPSRFSGGGSGTDFTLTITSLQPEDFATYYCQQCYSAELTFGGGTKVEIK
On to B2, for which the “In vitro neutralization IC50 (with complement)” value was found to be 0.06 µg/mL and the “In vitro neutralization IC50 (without complement)” value was determined as 0.09 µg/mL.

(Values after patent US20190328867A1 (EMORY UNIVERSITY, published 2019).)
